Measured values as given in paper PMC11259198.
One block for each substance: values may come before it.

Key:
Assay in all cases: SEC
[1] = molecular target: globular N-terminal domain of human apolipoprotein A-I (residue fragment 1–184), Glu34Lys (human)
[2] = molecular target: globular N-terminal domain of human apolipoprotein A-I (residue fragment 1–184), Leu159Arg (human)
[3] = molecular target: globular N-terminal domain of human apolipoprotein A-I (residue fragment 1–184), Phe71Tyr (human)
[4] = molecular target: globular N-terminal domain of human apolipoprotein A-I (residue fragment 1–184), wild type (human)

- stoichiometry N [1]: 2
Substance: globular N-terminal domain of human apolipoprotein A-I (residue fragment 1–184), Glu34Lys (domain or fragment)

- stoichiometry N [2]: 2
Substance: globular N-terminal domain of human apolipoprotein A-I (residue fragment 1–184), Leu159Arg (domain or fragment)

- stoichiometry N [3]: 2
Substance: globular N-terminal domain of human apolipoprotein A-I (residue fragment 1–184), Phe71Tyr (domain or fragment)

- stoichiometry N [4]: 2
Substance: globular N-terminal domain of human apolipoprotein A-I (residue fragment 1–184), wild type (domain or fragment)
